{"source": "IntAct's records for PubMed 31515488", "parents": {"B1": {"name": "Ornithine decarboxylase antizyme 3 (Homo sapiens), Q9UMX2 (parent)", "chain": "MPCKRCRPSVYSLSYIKRGKTRNYLYPIWSPYAYYLYCYKYRITLREKMLPRCYKSITYKEEEDLTLQPRSCLQCSESLVGLQEGKSTEQGNHDQLKELYSAGNLTVLATDPLLHQDPVQLDFHFRLTSQTSAHWHGLLCDRRLFLDIPYQALDQGNRESLTATLEYVEEKTNVDSVFVNFQNDRNDRGALLRAFSYMGFEVVRPDHPALPPLDNVIFMVYPLERDVGHLPSEPP", "partner": "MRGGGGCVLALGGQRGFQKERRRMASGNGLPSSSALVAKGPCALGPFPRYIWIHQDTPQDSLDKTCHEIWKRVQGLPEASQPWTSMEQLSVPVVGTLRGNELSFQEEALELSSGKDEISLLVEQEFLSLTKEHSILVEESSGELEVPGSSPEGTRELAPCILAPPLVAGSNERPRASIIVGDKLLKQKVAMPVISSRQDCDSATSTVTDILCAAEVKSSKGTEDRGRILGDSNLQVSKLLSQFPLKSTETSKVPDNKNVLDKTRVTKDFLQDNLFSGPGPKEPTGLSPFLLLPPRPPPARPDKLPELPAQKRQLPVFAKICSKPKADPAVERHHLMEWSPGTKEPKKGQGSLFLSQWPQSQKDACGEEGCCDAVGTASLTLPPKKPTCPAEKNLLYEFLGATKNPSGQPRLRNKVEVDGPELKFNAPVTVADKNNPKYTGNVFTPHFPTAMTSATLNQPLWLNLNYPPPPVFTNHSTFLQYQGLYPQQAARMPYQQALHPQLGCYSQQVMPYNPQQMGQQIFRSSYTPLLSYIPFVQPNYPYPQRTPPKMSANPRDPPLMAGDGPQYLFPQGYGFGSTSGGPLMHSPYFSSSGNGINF"}, "B2": {"name": "KH domain-containing, RNA-binding, signal transduction-associated protein 2 (Homo sapiens), Q5VWX1 (parent)", "chain": "MEEEKYLPELMAEKDSLDPSFVHASRLLAEEIEKFQGSDGKKEDEEKKYLDVISNKNIKLSERVLIPVKQYPKFNFVGKLLGPRGNSLKRLQEETGAKMSILGKGSMRDKAKEEELRKSGEAKYAHLSDELHVLIEVFAPPGEAYSRMSHALEEIKKFLVPDYNDEIRQEQLRELSYLNGSEDSGRGRGIRGRGIRIAPTAPSRGRGGAIPPPPPPGRGVLTPRGSTVTRGALPVPPVARGVPTPRARGAPTVPGYRAPPPPAHEAYEEYGYDDGYGGEYDDQTYETYDNSYATQTQSVPEYYDYGHGVSEDAYDSYAPEEWATTRSSLKAPPQRSARGGYREHPYGRY", "partner": "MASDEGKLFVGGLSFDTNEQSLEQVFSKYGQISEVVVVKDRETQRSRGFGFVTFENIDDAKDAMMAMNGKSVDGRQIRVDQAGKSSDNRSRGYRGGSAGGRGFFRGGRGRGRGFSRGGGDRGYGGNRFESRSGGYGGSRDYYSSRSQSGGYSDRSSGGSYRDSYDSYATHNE"}, "B3": {"name": "Grancalcin (Homo sapiens), P28676 (parent)", "chain": "MAYPGYGGGFGNFSIQVPGMQMGQPVPETGPAILLDGYSGPAYSDTYSSAGDSVYTYFSAVAGQDGEVDAEELQRCLTQSGINGTYSPFSLETCRIMIAMLDRDHTGKMGFNAFKELWAALNAWKENFMTVDQDGSGTVEHHELRQAIGLMGYRLSPQTLTTIVKRYSKNGRIFFDDYVACCVKLRALTDFFRKRDHLQQGSANFIYDDFLQGTMAI", "partner": "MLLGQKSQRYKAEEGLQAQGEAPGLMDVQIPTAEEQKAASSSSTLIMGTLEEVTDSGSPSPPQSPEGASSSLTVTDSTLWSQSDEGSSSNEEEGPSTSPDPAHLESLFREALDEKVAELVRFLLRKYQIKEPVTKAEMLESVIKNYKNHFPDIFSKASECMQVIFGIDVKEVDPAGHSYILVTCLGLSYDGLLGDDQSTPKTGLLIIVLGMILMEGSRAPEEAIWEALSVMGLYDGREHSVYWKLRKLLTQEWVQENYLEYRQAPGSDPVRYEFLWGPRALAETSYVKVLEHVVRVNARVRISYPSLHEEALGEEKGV"}, "B4": {"name": "Beta-taxilin (Homo sapiens), Q8N3L3 (parent)", "chain": "MEANHSEQLSAERQSTPPGDSSSLPSHNGLEKEDGQDSPTPVQPPEKEASVHPDISEELNRQLEDIINTYGSAASTAGKEGSARASEQPENAESPDNEDGDCEETTEEAGREPVASGEPPTVKEPVSNKEQKLEKKILKGLGKEANLLMQNLNKLQTPEEKFDFLFKKYAELLDEHRTEQKKLKLLQKKQVQIQKEKDQLQGEHSRAILARSKLESLCRELQRHNKTLKEEALQRAREEEEKRKEITSHFQSTLTDIQGQIEQQSERNMKLCQENTELAEKLKSIIDQYELREEHLDKIFKHRELQQKLVDAKLEQAQEMMKEAEERHKREKEYLLNQAAEWKLQAKVLKEQETVLQAQLTLYSGRFEEFQSTLTKSNEVFATFKQEMDKTTKKMKKLEKDTATWKARFENCNKALLDMIEEKALRAKEYECFVMKIGRLENLCRALQEERNELHKKIRDAEISEKDDQSQHNSDEEPESNVSVDQEIDAEEVNSVQTAVKNLATAFMIIHHPESTPHQSKETQPEIGSSQESADAALKEPEQPPLIPSRDSESPLPPLTPQAEAEGGSDAEPPSKASNSPAGLGAETQCEGLPVGAQADQASWKPEAEASGQAPQAPTEASLQKMEADVPAPACAAEEHVAAMVPACEPSRQPPRAAAEELPVGASAGPQPRNVADTNLEGVD", "partner": "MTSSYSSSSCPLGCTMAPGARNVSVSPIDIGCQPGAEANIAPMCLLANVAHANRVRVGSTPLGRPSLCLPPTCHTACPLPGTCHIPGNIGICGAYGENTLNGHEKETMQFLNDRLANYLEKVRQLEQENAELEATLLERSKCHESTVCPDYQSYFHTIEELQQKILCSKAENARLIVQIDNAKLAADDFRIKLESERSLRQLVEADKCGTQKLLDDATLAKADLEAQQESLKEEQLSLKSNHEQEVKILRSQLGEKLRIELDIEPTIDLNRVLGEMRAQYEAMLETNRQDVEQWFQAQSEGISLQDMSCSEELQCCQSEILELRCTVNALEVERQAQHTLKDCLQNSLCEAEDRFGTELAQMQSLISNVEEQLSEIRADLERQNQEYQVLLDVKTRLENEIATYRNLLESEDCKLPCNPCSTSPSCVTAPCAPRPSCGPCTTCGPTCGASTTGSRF"}, "B5": {"name": "Four and a half LIM domains protein 5 (Homo sapiens), Q5TD97 (parent)", "chain": "MTTAHFYCQYCTASLLGKKYVLKDDSPYCVTCYDRVFSNYCEECKKPIESDSKDLCYKDRHWHEGCFKCTKCNHSLVEKPFAAKDERLLCTECYSNECSSKCFHCKRTIMPGSRKMEFKGNYWHETCFVCENCRQPIGTKPLISKESGNYCVPCFEKEFAHYCNFCKKVITSGGITFCDQLWHKECFLCSGCRKDLCEEQFMSRDDYPFCVDCYNHLYANKCVACSKPISGLTGAKFICFQDSQWHSECFNCGKCSVSLVGKGFLTQNKEIFCQKCGSGMDTDI", "partner": "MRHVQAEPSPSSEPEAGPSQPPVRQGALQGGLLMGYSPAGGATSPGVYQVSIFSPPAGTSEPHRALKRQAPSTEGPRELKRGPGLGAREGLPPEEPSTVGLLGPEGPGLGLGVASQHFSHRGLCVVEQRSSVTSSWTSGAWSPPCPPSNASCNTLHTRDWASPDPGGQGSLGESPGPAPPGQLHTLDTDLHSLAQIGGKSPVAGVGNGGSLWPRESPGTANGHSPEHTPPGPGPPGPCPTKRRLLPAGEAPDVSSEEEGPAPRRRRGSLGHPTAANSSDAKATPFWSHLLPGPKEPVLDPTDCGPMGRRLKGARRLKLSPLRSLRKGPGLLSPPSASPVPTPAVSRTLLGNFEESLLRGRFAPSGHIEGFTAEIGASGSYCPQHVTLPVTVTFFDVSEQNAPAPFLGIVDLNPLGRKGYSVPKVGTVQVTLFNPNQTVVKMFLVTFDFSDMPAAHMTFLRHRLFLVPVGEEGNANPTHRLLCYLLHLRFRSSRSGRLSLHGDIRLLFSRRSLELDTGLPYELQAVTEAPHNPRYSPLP"}, "B6": {"name": "Protein DDI1 homolog 1 (Homo sapiens), Q8WTU0 (parent)", "chain": "MLITVYCVRRDLSEVTFSLQVSPDFELRNFKVLCEAESRVPVEEIQIIHMERLLIEDHCSLGSYGLKDGDIVVLLQKDNVGPRAPGRAPNQPRVDFSGIAVPGTSSSRPQHPGQQQQRTPAAQRSQGLASGEKVAGLQGLGSPALIRSMLLSNPHDLSLLKERNPPLAEALLSGSLETFSQVLMEQQREKALREQERLRLYTADPLDREAQAKIEEEIRQQNIEENMNIAIEEAPESFGQVTMLYINCKVNGHPLKAFVDSGAQMTIMSQACAERCNIMRLVDRRWAGVAKGVGTQRIIGRVHLAQIQIEGDFLQCSFSILEDQPMDMLLGLDMLRRHQCSIDLKKNVLVIGTTGTQTYFLPEGELPLCSRMVSGQDESSDKEITHSVMDSGRKEH", "partner": "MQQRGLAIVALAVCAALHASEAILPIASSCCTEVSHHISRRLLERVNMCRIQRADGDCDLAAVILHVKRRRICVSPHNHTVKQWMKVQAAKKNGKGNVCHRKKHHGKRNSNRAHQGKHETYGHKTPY"}}, "data": [{"variants_of": "B1", "conditions": "with ca094_human C1orf94, Q6P1W5", "values": [{"variant": "R193Q", "effect of a mutation on the interaction": "with no effect"}, {"variant": "V174A", "effect of a mutation on the interaction": "disrupting interaction strength"}]}, {"variants_of": "B2", "conditions": "with cirbp_human CIRBP", "values": [{"variant": "P333L", "effect of a mutation on the interaction": "with no effect"}]}, {"variants_of": "B3", "conditions": "with maga8_human MAGEA8, P43361", "values": [{"variant": "K115R", "effect of a mutation on the interaction": "disrupting interaction strength"}, {"variant": "S80A", "effect of a mutation on the interaction": "disrupting interaction strength"}]}, {"variants_of": "B4", "conditions": "with krt38_human KRT38, O76015", "values": [{"variant": "I527T", "effect of a mutation on the interaction": "with no effect"}]}, {"variants_of": "B5", "conditions": "with atosb_human ATOSB", "values": [{"variant": "M202L", "effect of a mutation on the interaction": "with no effect"}, {"variant": "D24Y", "effect of a mutation on the interaction": "with no effect"}, {"variant": "R204G", "effect of a mutation on the interaction": "with no effect"}, {"variant": "R60W", "effect of a mutation on the interaction": "with no effect"}]}, {"variants_of": "B6", "conditions": "with ccl28_human CCL28, Q9NRJ3", "values": [{"variant": "R87C", "effect of a mutation on the interaction": "with no effect"}]}]}
